Numbered stars: 1 amine (or outer) side, 2 acyl side, 3 side chain; on linkers, the order of the positions; unused ones are H or OH. Square brackets hold non-standard residues; d marks the D form. Ends that are not written are not given here. * marks the point of attachment. Cholesteryloxycarbonyl = CC(C)CCC[C@@H](C)[C@H]1CC[C@H]2[C@@H]3CC=C4C[C@@H](OC(=O)*)CC[C@]4(C)[C@H]3CC[C@]12C; Ser(Me) = COC[C@H](N[*:1])C(=O)[*:2]; hLeu = CC(C)CC[C@H](N)C(=O)O; Nva = CCC[C@H](N)C(=O)O; Dap = NC[C@H](N)C(=O)O; GABA = NCCCC(=O)O; βAla = NCCC(=O)O
Target: protein kinase B (PKB)
Experiment: cell-based or functional assay

Row | IC50, in vitro kinase assay PKB [nM] | Binder
1 | 1000 | Cholesteryloxycarbonyl-GGRPR[Nva]Y[Dap][hLeu]-NH2 (SMILES CCC[C@H](NC(=O)[C@H](CCCNC(=N)N)NC(=O)[C@@H]1CCCN1C(=O)[C@H](CCCNC(=N)N)NC(=O)CNC(=O)CNC(=O)O[C@H]1CC[C@@]2(C)C(=CC[C@H]3[C@@H]4CC[C@H]([C@H](C)CCCC(C)C)[C@@]4(C)CC[C@@H]32)C1)C(=O)N[C@@H](Cc1ccc(O)cc1)C(=O)N[C@@H](CN)C(=O)N[C@@H](CCC(C)C)C(N)=O) [PTR 6328]
2 | 100 | Cholesteryloxycarbonyl-[dK][dK][dK][dK]RPR[Nva]Y[Dap][hLeu]-NH2 (SMILES CCC[C@H](NC(=O)[C@H](CCCNC(=N)N)NC(=O)[C@@H]1CCCN1C(=O)[C@H](CCCNC(=N)N)NC(=O)[C@@H](CCCCN)NC(=O)[C@@H](CCCCN)NC(=O)[C@@H](CCCCN)NC(=O)[C@@H](CCCCN)NC(=O)O[C@H]1CC[C@@]2(C)C(=CC[C@H]3[C@@H]4CC[C@H]([C@H](C)CCCC(C)C)[C@@]4(C)CC[C@@H]32)C1)C(=O)N[C@@H](Cc1ccc(O)cc1)C(=O)N[C@@H](CN)C(=O)N[C@@H](CCC(C)C)C(N)=O) [PTR 6322]
3 | 1000 | Cholesteryloxycarbonyl-GGGRPR[Nva]Y[Dap][hLeu]-NH2 (SMILES CCC[C@H](NC(=O)[C@H](CCCNC(=N)N)NC(=O)[C@@H]1CCCN1C(=O)[C@H](CCCNC(=N)N)NC(=O)CNC(=O)CNC(=O)CNC(=O)O[C@H]1CC[C@@]2(C)C(=CC[C@H]3[C@@H]4CC[C@H]([C@H](C)CCCC(C)C)[C@@]4(C)CC[C@@H]32)C1)C(=O)N[C@@H](Cc1ccc(O)cc1)C(=O)N[C@@H](CN)C(=O)N[C@@H](CCC(C)C)C(N)=O) [PTR 6330]
4 | 100 | Cholesteryloxycarbonyl-[dK][dK][dK][dK][dK]RPR[Nva]Y[Dap][hLeu]-NH2 (SMILES CCC[C@H](NC(=O)[C@H](CCCNC(=N)N)NC(=O)[C@@H]1CCCN1C(=O)[C@H](CCCNC(=N)N)NC(=O)[C@@H](CCCCN)NC(=O)[C@@H](CCCCN)NC(=O)[C@@H](CCCCN)NC(=O)[C@@H](CCCCN)NC(=O)[C@@H](CCCCN)NC(=O)O[C@H]1CC[C@@]2(C)C(=CC[C@H]3[C@@H]4CC[C@H]([C@H](C)CCCC(C)C)[C@@]4(C)CC[C@@H]32)C1)C(=O)N[C@@H](Cc1ccc(O)cc1)C(=O)N[C@@H](CN)C(=O)N[C@@H](CCC(C)C)C(N)=O) [PTR 6324]
5 | 100 | Cholesteryloxycarbonyl-[dK][dK][dK][dK][dK][dK]RPR[Nva]Y[Dap][hLeu]-NH2 (SMILES CCC[C@H](NC(=O)[C@H](CCCNC(=N)N)NC(=O)[C@@H]1CCCN1C(=O)[C@H](CCCNC(=N)N)NC(=O)[C@@H](CCCCN)NC(=O)[C@@H](CCCCN)NC(=O)[C@@H](CCCCN)NC(=O)[C@@H](CCCCN)NC(=O)[C@@H](CCCCN)NC(=O)[C@@H](CCCCN)NC(=O)O[C@H]1CC[C@@]2(C)C(=CC[C@H]3[C@@H]4CC[C@H]([C@H](C)CCCC(C)C)[C@@]4(C)CC[C@@H]32)C1)C(=O)N[C@@H](Cc1ccc(O)cc1)C(=O)N[C@@H](CN)C(=O)N[C@@H](CCC(C)C)C(N)=O) [PTR 6326]
6 | 100 | Cholesteryloxycarbonyl-[dK][dK][dK][dK][dK][dK][dK][dK]RPR[Nva]Y[Dap][hLeu]-NH2 (SMILES CCC[C@H](NC(=O)[C@H](CCCNC(=N)N)NC(=O)[C@@H]1CCCN1C(=O)[C@H](CCCNC(=N)N)NC(=O)[C@@H](CCCCN)NC(=O)[C@@H](CCCCN)NC(=O)[C@@H](CCCCN)NC(=O)[C@@H](CCCCN)NC(=O)[C@@H](CCCCN)NC(=O)[C@@H](CCCCN)NC(=O)[C@@H](CCCCN)NC(=O)[C@@H](CCCCN)NC(=O)O[C@H]1CC[C@@]2(C)C(=CC[C@H]3[C@@H]4CC[C@H]([C@H](C)CCCC(C)C)[C@@]4(C)CC[C@@H]32)C1)C(=O)N[C@@H](Cc1ccc(O)cc1)C(=O)N[C@@H](CN)C(=O)N[C@@H](CCC(C)C)C(N)=O) [PTR 6962]

Further lines, the binder ahead of its results:

Row | Binder | IC50, in vitro kinase assay PKB [nM]
7 | Cholesteryloxycarbonyl-[GABA]RPR[Nva]Y[Dap][hLeu]-NH2 (SMILES CCC[C@H](NC(=O)[C@H](CCCNC(=N)N)NC(=O)[C@@H]1CCCN1C(=O)[C@H](CCCNC(=N)N)NC(=O)CCCNC(=O)O[C@H]1CC[C@@]2(C)C(=CC[C@H]3[C@@H]4CC[C@H]([C@H](C)CCCC(C)C)[C@@]4(C)CC[C@@H]32)C1)C(=O)N[C@@H](Cc1ccc(O)cc1)C(=O)N[C@@H](CN)C(=O)N[C@@H](CCC(C)C)C(N)=O) [PTR 6298] | 2000
8 | Cholesteryloxycarbonyl-GRPR[Nva]Y[Dap][hLeu]-NH2 (SMILES CCC[C@H](NC(=O)[C@H](CCCNC(=N)N)NC(=O)[C@@H]1CCCN1C(=O)[C@H](CCCNC(=N)N)NC(=O)CNC(=O)O[C@H]1CC[C@@]2(C)C(=CC[C@H]3[C@@H]4CC[C@H]([C@H](C)CCCC(C)C)[C@@]4(C)CC[C@@H]32)C1)C(=O)N[C@@H](Cc1ccc(O)cc1)C(=O)N[C@@H](CN)C(=O)N[C@@H](CCC(C)C)C(N)=O) [PTR 6294] | 1000
9 | Cholesteryloxycarbonyl-[dK][dK][dK]RPR[Nva]Y[Dap][hLeu]-NH2 (SMILES CCC[C@H](NC(=O)[C@H](CCCNC(=N)N)NC(=O)[C@@H]1CCCN1C(=O)[C@H](CCCNC(=N)N)NC(=O)[C@@H](CCCCN)NC(=O)[C@@H](CCCCN)NC(=O)[C@@H](CCCCN)NC(=O)O[C@H]1CC[C@@]2(C)C(=CC[C@H]3[C@@H]4CC[C@H]([C@H](C)CCCC(C)C)[C@@]4(C)CC[C@@H]32)C1)C(=O)N[C@@H](Cc1ccc(O)cc1)C(=O)N[C@@H](CN)C(=O)N[C@@H](CCC(C)C)C(N)=O) [PTR 6320] | 200
10 | Cholesteryloxycarbonyl-[βAla]RPR[Nva]Y[Ser(Me)][hLeu]-NH2 (SMILES CCC[C@H](NC(=O)[C@H](CCCNC(=N)N)NC(=O)[C@@H]1CCCN1C(=O)[C@H](CCCNC(=N)N)NC(=O)CCNC(=O)O[C@H]1CC[C@@]2(C)C(=CC[C@H]3[C@@H]4CC[C@H]([C@H](C)CCCC(C)C)[C@@]4(C)CC[C@@H]32)C1)C(=O)N[C@@H](Cc1ccc(O)cc1)C(=O)N[C@@H](COC)C(=O)N[C@@H](CCC(C)C)C(N)=O) [PTR 6308] | 500
11 | Cholesteryloxycarbonyl-GRPR[Nva]Y[Ser(Me)][hLeu]-NH2 (SMILES CCC[C@H](NC(=O)[C@H](CCCNC(=N)N)NC(=O)[C@@H]1CCCN1C(=O)[C@H](CCCNC(=N)N)NC(=O)CNC(=O)O[C@H]1CC[C@@]2(C)C(=CC[C@H]3[C@@H]4CC[C@H]([C@H](C)CCCC(C)C)[C@@]4(C)CC[C@@H]32)C1)C(=O)N[C@@H](Cc1ccc(O)cc1)C(=O)N[C@@H](COC)C(=O)N[C@@H](CCC(C)C)C(N)=O) [PTR 6306] | 500
12 | Cholesteryloxycarbonyl-[βAla]RPR[Nva]Y[Dap][hLeu]-NH2 (SMILES CCC[C@H](NC(=O)[C@H](CCCNC(=N)N)NC(=O)[C@@H]1CCCN1C(=O)[C@H](CCCNC(=N)N)NC(=O)CCNC(=O)O[C@H]1CC[C@@]2(C)C(=CC[C@H]3[C@@H]4CC[C@H]([C@H](C)CCCC(C)C)[C@@]4(C)CC[C@@H]32)C1)C(=O)N[C@@H](Cc1ccc(O)cc1)C(=O)N[C@@H](CN)C(=O)N[C@@H](CCC(C)C)C(N)=O) [PTR 6296] | 2000
13 | [dK][dK][dK][dK][dK][dK][dK][dK]RPR[Nva]Y[Dap][hLeu]K(Cholesteryloxycarbonyl)-NH2 (N-terminus assumed; SMILES CCC[C@H](NC(=O)[C@H](CCCNC(=N)N)NC(=O)[C@@H]1CCCN1C(=O)[C@H](CCCNC(=N)N)NC(=O)[C@@H](CCCCN)NC(=O)[C@@H](CCCCN)NC(=O)[C@@H](CCCCN)NC(=O)[C@@H](CCCCN)NC(=O)[C@@H](CCCCN)NC(=O)[C@@H](CCCCN)NC(=O)[C@@H](CCCCN)NC(=O)[C@H](N)CCCCN)C(=O)N[C@@H](Cc1ccc(O)cc1)C(=O)N[C@@H](CN)C(=O)N[C@@H](CCC(C)C)C(=O)N[C@@H](CCCCNC(=O)O[C@H]1CC[C@@]2(C)C(=CC[C@H]3[C@@H]4CC[C@H]([C@H](C)CCCC(C)C)[C@@]4(C)CC[C@@H]32)C1)C(N)=O) [PTR 6312] | 100
14 | Cholesteryloxycarbonyl-RPR[Nva]Y[Ser(Me)][hLeu]-NH2 (SMILES CCC[C@H](NC(=O)[C@H](CCCNC(=N)N)NC(=O)[C@@H]1CCCN1C(=O)[C@H](CCCNC(=N)N)NC(=O)O[C@H]1CC[C@@]2(C)C(=CC[C@H]3[C@@H]4CC[C@H]([C@H](C)CCCC(C)C)[C@@]4(C)CC[C@@H]32)C1)C(=O)N[C@@H](Cc1ccc(O)cc1)C(=O)N[C@@H](COC)C(=O)N[C@@H](CCC(C)C)C(N)=O) [PTR 6304] | 500
15 | Cholesteryloxycarbonyl-[dK][dK]RPR[Nva]Y[Dap][hLeu]-NH2 (SMILES CCC[C@H](NC(=O)[C@H](CCCNC(=N)N)NC(=O)[C@@H]1CCCN1C(=O)[C@H](CCCNC(=N)N)NC(=O)[C@@H](CCCCN)NC(=O)[C@@H](CCCCN)NC(=O)O[C@H]1CC[C@@]2(C)C(=CC[C@H]3[C@@H]4CC[C@H]([C@H](C)CCCC(C)C)[C@@]4(C)CC[C@@H]32)C1)C(=O)N[C@@H](Cc1ccc(O)cc1)C(=O)N[C@@H](CN)C(=O)N[C@@H](CCC(C)C)C(N)=O) [PTR 6318] | 200

From patent US20070078092A1 (CUREGENICS, published 2007)
